Source: US20250352661A1 (MYTHIC THERAPEUTICS, published 2025)

T1: Human LRRC15 Protein, His Tag (Acro Biosystems) (human, UniProt Q8TF66 22-538, limits assumed)
T1 construct: Bought protein with His tag
T1 sequence (looked up): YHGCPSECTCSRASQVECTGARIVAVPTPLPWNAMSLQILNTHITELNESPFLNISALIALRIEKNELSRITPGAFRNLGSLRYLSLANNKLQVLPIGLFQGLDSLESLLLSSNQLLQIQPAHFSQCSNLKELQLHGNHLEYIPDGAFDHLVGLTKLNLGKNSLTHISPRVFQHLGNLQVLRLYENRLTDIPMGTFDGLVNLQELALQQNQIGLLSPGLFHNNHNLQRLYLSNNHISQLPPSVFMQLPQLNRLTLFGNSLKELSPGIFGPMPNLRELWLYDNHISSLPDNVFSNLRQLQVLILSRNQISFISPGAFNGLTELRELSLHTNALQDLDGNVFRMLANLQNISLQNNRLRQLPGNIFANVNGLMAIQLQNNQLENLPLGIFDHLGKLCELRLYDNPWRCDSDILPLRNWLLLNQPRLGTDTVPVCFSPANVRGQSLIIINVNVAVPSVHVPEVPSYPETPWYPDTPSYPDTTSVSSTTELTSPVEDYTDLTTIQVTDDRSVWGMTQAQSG

B1: MYT5742 (antibody, V domains shown)
VH: QQQLVESGGGLVKPGASLTLTCKASGFSFSGSYWICWVRQAPGKGLEWIGCINGGSLDITYYASWAKGRFTISKASSTTVTLQKTSLTAADTATYFCASDTSYTAYGNFYFNLWGPGTLVTVSS
VL: AQVLTQTASPVSAAVGGTVTINCQSSQSVLNNNWLAWYQQKPGQPPKLLIYDASSLASGVPSRFKGSGSGTQFTLTISDLESDDAATYYCQGEFSCGSADCNAFGGGTEVVVKG
notes: Parent of the rabbit 24D9 scan; chimeric, rabbit variable domains with human constant regions; also called 24D9; chimeric 24D9 RabMAb
B2: MYT7885 (antibody, V domains shown)
VH: QQQLVESGGGLVKPGASLTLTCKASGFSFHGSYWICWVRQAPGKGLEWIGCINGGSLDITYYASWAKGRFTISKASSTTVTLQKTSLTAADTATYFCASDTSYTAYGNFYFNLWGPGTLVTVSS
VL: AQVLTQTASPVSAAVGGTVTINCQSSQSVLNNNWLAWYQQKPGQPPKLLIYDASSLASGVPSRFKGSGSGTQFTLTISDLESDDAATYYCQGEFSCGSADCNAFGGGTEVVVKG
notes: rabbit 24D9 VH S30H; chimeric, human constant regions
B3: MYT7883 (antibody, V domains shown)
VH: QQQLVESGGGLVKPGASLTLTCKASGFHFSGSYWICWVRQAPGKGLEWIGCINGGSLDITYYASWAKGRFTISKASSTTVTLQKTSLTAADTATYFCASDTSYTAYGNFYFNLWGPGTLVTVSS
VL: AQVLTQTASPVSAAVGGTVTINCQSSQSVLNNNWLAWYQQKPGQPPKLLIYDASSLASGVPSRFKGSGSGTQFTLTISDLESDDAATYYCQGEFSCGSADCNAFGGGTEVVVKG
notes: rabbit 24D9 VH S28H; chimeric, human constant regions
B4: MYT7881 (antibody, V domains shown)
VH: QQQLVESGGGLVKPGASLTLTCKASHFSFSGSYWICWVRQAPGKGLEWIGCINGGSLDITYYASWAKGRFTISKASSTTVTLQKTSLTAADTATYFCASDTSYTAYGNFYFNLWGPGTLVTVSS
VL: AQVLTQTASPVSAAVGGTVTINCQSSQSVLNNNWLAWYQQKPGQPPKLLIYDASSLASGVPSRFKGSGSGTQFTLTISDLESDDAATYYCQGEFSCGSADCNAFGGGTEVVVKG
notes: rabbit 24D9 VH G26H; chimeric, human constant regions
B5: MYT7888 (antibody, V domains shown)
VH: QQQLVESGGGLVKPGASLTLTCKASGFSFSGSHWICWVRQAPGKGLEWIGCINGGSLDITYYASWAKGRFTISKASSTTVTLQKTSLTAADTATYFCASDTSYTAYGNFYFNLWGPGTLVTVSS
VL: AQVLTQTASPVSAAVGGTVTINCQSSQSVLNNNWLAWYQQKPGQPPKLLIYDASSLASGVPSRFKGSGSGTQFTLTISDLESDDAATYYCQGEFSCGSADCNAFGGGTEVVVKG
notes: rabbit 24D9 VH Y33H; chimeric, human constant regions
B6: MYT7897 (antibody, V domains shown)
VH: QQQLVESGGGLVKPGASLTLTCKASGFSFSGSYWICWVRQAPGKGLEWIGCINGGHLDITYYASWAKGRFTISKASSTTVTLQKTSLTAADTATYFCASDTSYTAYGNFYFNLWGPGTLVTVSS
VL: AQVLTQTASPVSAAVGGTVTINCQSSQSVLNNNWLAWYQQKPGQPPKLLIYDASSLASGVPSRFKGSGSGTQFTLTISDLESDDAATYYCQGEFSCGSADCNAFGGGTEVVVKG
notes: rabbit 24D9 VH S56H; chimeric, human constant regions
B7: MYT7892 (antibody, V domains shown)
VH: QQQLVESGGGLVKPGASLTLTCKASGFSFSGSYWISWVRQAPGKGLEWIGHINGGSLDITYYASWAKGRFTISKASSTTVTLQKTSLTAADTATYFCASDTSYTAYGNFYFNLWGPGTLVTVSS
VL: AQVLTQTASPVSAAVGGTVTINCQSSQSVLNNNWLAWYQQKPGQPPKLLIYDASSLASGVPSRFKGSGSGTQFTLTISDLESDDAATYYCQGEFSCGSADCNAFGGGTEVVVKG
notes: rabbit 24D9 VH C51H; chimeric, human constant regions
B8: MYT7890 (antibody, V domains shown)
VH: QQQLVESGGGLVKPGASLTLTCKASGFSFSGSYWHCWVRQAPGKGLEWIGCINGGSLDITYYASWAKGRFTISKASSTTVTLQKTSLTAADTATYFCASDTSYTAYGNFYFNLWGPGTLVTVSS
VL: AQVLTQTASPVSAAVGGTVTINCQSSQSVLNNNWLAWYQQKPGQPPKLLIYDASSLASGVPSRFKGSGSGTQFTLTISDLESDDAATYYCQGEFSCGSADCNAFGGGTEVVVKG
notes: rabbit 24D9 VH I35H; chimeric, human constant regions
B9: MYT7889 (antibody, V domains shown)
VH: QQQLVESGGGLVKPGASLTLTCKASGFSFSGSYHICWVRQAPGKGLEWIGCINGGSLDITYYASWAKGRFTISKASSTTVTLQKTSLTAADTATYFCASDTSYTAYGNFYFNLWGPGTLVTVSS
VL: AQVLTQTASPVSAAVGGTVTINCQSSQSVLNNNWLAWYQQKPGQPPKLLIYDASSLASGVPSRFKGSGSGTQFTLTISDLESDDAATYYCQGEFSCGSADCNAFGGGTEVVVKG
notes: rabbit 24D9 VH W34H; chimeric, human constant regions
B10: MYT7884 (antibody, V domains shown)
VH: QQQLVESGGGLVKPGASLTLTCKASGFSHSGSYWICWVRQAPGKGLEWIGCINGGSLDITYYASWAKGRFTISKASSTTVTLQKTSLTAADTATYFCASDTSYTAYGNFYFNLWGPGTLVTVSS
VL: AQVLTQTASPVSAAVGGTVTINCQSSQSVLNNNWLAWYQQKPGQPPKLLIYDASSLASGVPSRFKGSGSGTQFTLTISDLESDDAATYYCQGEFSCGSADCNAFGGGTEVVVKG
notes: rabbit 24D9 VH F29H; chimeric, human constant regions
B11: MYT7882 (antibody, V domains shown)
VH: QQQLVESGGGLVKPGASLTLTCKASGHSFSGSYWICWVRQAPGKGLEWIGCINGGSLDITYYASWAKGRFTISKASSTTVTLQKTSLTAADTATYFCASDTSYTAYGNFYFNLWGPGTLVTVSS
VL: AQVLTQTASPVSAAVGGTVTINCQSSQSVLNNNWLAWYQQKPGQPPKLLIYDASSLASGVPSRFKGSGSGTQFTLTISDLESDDAATYYCQGEFSCGSADCNAFGGGTEVVVKG
notes: rabbit 24D9 VH F27H; chimeric, human constant regions
B12: MYT7891 (antibody, V domains shown)
VH: QQQLVESGGGLVKPGASLTLTCKASGFSFSGSYWIHWVRQAPGKGLEWIGSINGGSLDITYYASWAKGRFTISKASSTTVTLQKTSLTAADTATYFCASDTSYTAYGNFYFNLWGPGTLVTVSS
VL: AQVLTQTASPVSAAVGGTVTINCQSSQSVLNNNWLAWYQQKPGQPPKLLIYDASSLASGVPSRFKGSGSGTQFTLTISDLESDDAATYYCQGEFSCGSADCNAFGGGTEVVVKG
notes: rabbit 24D9 VH C36H; chimeric, human constant regions
B13: MYT7895 (antibody, V domains shown)
VH: QQQLVESGGGLVKPGASLTLTCKASGFSFSGSYWICWVRQAPGKGLEWIGCINHGSLDITYYASWAKGRFTISKASSTTVTLQKTSLTAADTATYFCASDTSYTAYGNFYFNLWGPGTLVTVSS
VL: AQVLTQTASPVSAAVGGTVTINCQSSQSVLNNNWLAWYQQKPGQPPKLLIYDASSLASGVPSRFKGSGSGTQFTLTISDLESDDAATYYCQGEFSCGSADCNAFGGGTEVVVKG
notes: rabbit 24D9 VH G54H; chimeric, human constant regions
B14: MYT7886 (antibody, V domains shown)
VH: QQQLVESGGGLVKPGASLTLTCKASGFSFSHSYWICWVRQAPGKGLEWIGCINGGSLDITYYASWAKGRFTISKASSTTVTLQKTSLTAADTATYFCASDTSYTAYGNFYFNLWGPGTLVTVSS
VL: AQVLTQTASPVSAAVGGTVTINCQSSQSVLNNNWLAWYQQKPGQPPKLLIYDASSLASGVPSRFKGSGSGTQFTLTISDLESDDAATYYCQGEFSCGSADCNAFGGGTEVVVKG
notes: rabbit 24D9 VH G31H; chimeric, human constant regions
B15: MYT7893 (antibody, V domains shown)
VH: QQQLVESGGGLVKPGASLTLTCKASGFSFSGSYWICWVRQAPGKGLEWIGCHNGGSLDITYYASWAKGRFTISKASSTTVTLQKTSLTAADTATYFCASDTSYTAYGNFYFNLWGPGTLVTVSS
VL: AQVLTQTASPVSAAVGGTVTINCQSSQSVLNNNWLAWYQQKPGQPPKLLIYDASSLASGVPSRFKGSGSGTQFTLTISDLESDDAATYYCQGEFSCGSADCNAFGGGTEVVVKG
notes: rabbit 24D9 VH I52H; chimeric, human constant regions
B16: MYT7894 (antibody, V domains shown)
VH: QQQLVESGGGLVKPGASLTLTCKASGFSFSGSYWICWVRQAPGKGLEWIGCIHGGSLDITYYASWAKGRFTISKASSTTVTLQKTSLTAADTATYFCASDTSYTAYGNFYFNLWGPGTLVTVSS
VL: AQVLTQTASPVSAAVGGTVTINCQSSQSVLNNNWLAWYQQKPGQPPKLLIYDASSLASGVPSRFKGSGSGTQFTLTISDLESDDAATYYCQGEFSCGSADCNAFGGGTEVVVKG
notes: rabbit 24D9 VH N53H; chimeric, human constant regions
B17: MYT7896 (antibody, V domains shown)
VH: QQQLVESGGGLVKPGASLTLTCKASGFSFSGSYWICWVRQAPGKGLEWIGCINGHSLDITYYASWAKGRFTISKASSTTVTLQKTSLTAADTATYFCASDTSYTAYGNFYFNLWGPGTLVTVSS
VL: AQVLTQTASPVSAAVGGTVTINCQSSQSVLNNNWLAWYQQKPGQPPKLLIYDASSLASGVPSRFKGSGSGTQFTLTISDLESDDAATYYCQGEFSCGSADCNAFGGGTEVVVKG
notes: rabbit 24D9 VH G55H; chimeric, human constant regions
B18: MYT7887 (antibody, V domains shown)
VH: QQQLVESGGGLVKPGASLTLTCKASGFSFSGHYWICWVRQAPGKGLEWIGCINGGSLDITYYASWAKGRFTISKASSTTVTLQKTSLTAADTATYFCASDTSYTAYGNFYFNLWGPGTLVTVSS
VL: AQVLTQTASPVSAAVGGTVTINCQSSQSVLNNNWLAWYQQKPGQPPKLLIYDASSLASGVPSRFKGSGSGTQFTLTISDLESDDAATYYCQGEFSCGSADCNAFGGGTEVVVKG
notes: rabbit 24D9 VH S32H; chimeric, human constant regions
B19: MYT7898 (antibody, V domains shown)
VH: QQQLVESGGGLVKPGASLTLTCKASGFSFSGSYWICWVRQAPGKGLEWIGCINGGSHDITYYASWAKGRFTISKASSTTVTLQKTSLTAADTATYFCASDTSYTAYGNFYFNLWGPGTLVTVSS
VL: AQVLTQTASPVSAAVGGTVTINCQSSQSVLNNNWLAWYQQKPGQPPKLLIYDASSLASGVPSRFKGSGSGTQFTLTISDLESDDAATYYCQGEFSCGSADCNAFGGGTEVVVKG
notes: rabbit 24D9 VH L57H; chimeric, human constant regions

Target: T1, Human LRRC15 Protein, His Tag (Acro …)
Assay: BLI; dissociation pH 7.4 black, pH 5.4 grey [1/2); D00013 FIG. 2B (1/2]

Binder | binding result
B1 | binds
B2 | binds
B3 | binds
B4 | binds
B5 | binds
B6 | binds
B7 | binds
B8 | binds
B9 | binds
B10 | no binding (tested: 50 nM LRRC15)
B11 | binds
B12 | binds
B13 | binds
B14 | binds
B15 | binds
B16 | binds
B17 | binds
B18 | binds
B19 | binds
